# Source: article PMC7082061 (PLoS Pathogens, 2020)
# Molecular target: full-length wild type MOKV G (MOKV G WT) (Mokola virus) (UniProt P0C572)
# Assay: negative staining electron microscopy
# Sequence of full-length wild type MOKV G (MOKV G WT) (P0C572 20-522): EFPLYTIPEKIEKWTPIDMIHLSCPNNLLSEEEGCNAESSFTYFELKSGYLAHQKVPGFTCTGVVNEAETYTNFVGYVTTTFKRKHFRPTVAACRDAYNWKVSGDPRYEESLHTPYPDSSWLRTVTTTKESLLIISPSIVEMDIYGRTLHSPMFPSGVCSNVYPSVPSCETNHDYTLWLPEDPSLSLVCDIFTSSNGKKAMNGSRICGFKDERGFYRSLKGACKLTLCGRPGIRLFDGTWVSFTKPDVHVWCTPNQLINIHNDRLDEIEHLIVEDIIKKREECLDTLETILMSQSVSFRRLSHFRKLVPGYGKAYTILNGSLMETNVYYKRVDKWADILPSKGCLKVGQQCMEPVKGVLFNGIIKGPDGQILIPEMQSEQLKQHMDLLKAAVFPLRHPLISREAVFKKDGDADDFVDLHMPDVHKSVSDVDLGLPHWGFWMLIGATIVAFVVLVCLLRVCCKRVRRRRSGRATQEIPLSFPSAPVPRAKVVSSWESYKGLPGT
substance,measurement,value
full-length wild type MOKV G (MOKV G WT) (from UniProt P0C572 20-522) (natural protein),stoichiometry N,3
